Data reported in the supplement of paper PMC10567573.

B1: ATL3 (parent)
chain: QELEEEIKELYENFCKHNGSKNVF

Variants of: B1
Assay: protein stability index of a GFP-peptide fusion (GPS, HEK-293T) (PSI 1-6); higher = more stable
Conditions: c terminus: a fixed tail appended
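Also: lentivirally expressed fusions sorted by FACS into six bins by GFP to DsRed ratio, PSI derived from sequencing read proportions per bin multiplied by bin number.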

Protein stability index: each site, then its substitutions
G19: M 2.46 | H 2.87 | C 2.31 | F 2.65 | Q 2.73
E2: F 2.57 | C 2.65 | I 2.36 | V 2.3 | T 3.43 | Q 2.52 | P 3.68 | K 3.3
E6: C 2.32 | H 3 | A 2.13 | Y 2.37 | F 1.93 | V 2.08 | P 3.28 | M 2.19
L10: E 4.5 | P 4.23 | D 4.46 | G 4.41 | Q 3.88 | T 4.54 | S 4.25
K21: H 2.16 | Q 2.55 | N 2.42 | V 1.82 | Y 1.55 | D 2.11 | E 1.96
Y11: I 3.64 | P 5.15 | V 3.93 | T 4.3 | N 4.68 | K 4.88 | D 5.09 | H 4.46
S20: L 2.41 | D 1.97 | Y 2.29 | T 2.7 | V 2.93 | H 2.59 | N 2.48 | F 2
N22: R 3.3 | S 2.96 | Y 2.05 | E 2.38 | G 2.28
I7: A 4.55 | H 4.28 | L 3.03 | W 2.26 | G 4.73 | R 4.17 | Y 4.21 | N 4.52 | F 3.49
E5: Y 1.9 | G 3.25 | C 2.33 | D 3.27 | P 3.85
E4: D 3.62 | S 3.01 | F 2.2 | H 2.12 | W 2.39 | I 1.79 | T 3.34 | C 2.81 | Y 2.31
Q1: E 3.67 | M 2.46 | R 2.31 | K 2.31 | G 3.31 | D 3.13 | L 1.76 | C 2.69 | T 3.19
C15: L 1.97 | H 4.12 | I 2.07 | D 4.08 | A 3.86 | F 3.03
K8: F 2.48 | T 3.31 | A 2.96 | L 2.24 | G 3.67 | D 3.41 | P 4.37 | Q 3.01 | V 3.19 | I 2.36
E12: R 2.19 | T 2.83 | S 3.13 | M 2.41
E9: P 3.24 | Q 2.22 | K 2.38 | I 1.95 | V 2.4 | F 1.86 | S 2.39
F24: V 3.01 | G 2.73 | R 3.24 | Y 2.65 | D 2.38
K16: S 2.99 | I 2.86 | V 3.15 | G 3.51 | Y 2.49 | Q 3.11 | T 3.03
L3: T 3.83 | D 4.33 | H 4 | G 4.49 | K 4.55 | Y 2.85
N18: L 3.23 | H 2.94 | C 2.75 | T 2.6 | K 2.55 | D 2.28 | S 2.42
V23: E 3.07 | A 2.73 | F 2.22 | C 2.27 | P 2.61 | Y 1.94 | H 3.56 | L 2.68
F14: C 3.75 | M 4.06 | Y 3.53 | T 3.69 | R 4.1
N13: C 2.26 | A 1.72 | W 2.37 | K 2.15 | L 1.83 | V 2.89 | T 2.86 | Q 2.13
H17: M 2.96 | P 3.34 | G 2.75 | D 2.69 | Q 2.44 | F 3.2
